Measured values taken from patent US20220175873A1.
No end group written: not given here.

Experiments:
[1] = biological target: FQSE (SEQ ID NO:10)-specific binding sites in rat cortex membranes (rat); assay: radioligand analysis, rat cortex membranes, incubation 10 min at 4 °C
[2] = biological target: FQSE (SEQ ID NO:10)-specific binding sites in rat cortex membranes (rat); assay: radioligand analysis, rat cortex membranes, incubation 10 min at 37 °C
[3] = biological target: FQSE (SEQ ID NO:10)-specific binding sites in rat cortex membranes (rat); assay: radioligand analysis, rat cortex membranes, incubation 20 min at 4 °C
[4] = biological target: FQSE (SEQ ID NO:10)-specific binding sites in rat cortex membranes (rat); assay: radioligand analysis, rat cortex membranes, buffer with added salts (NaCl, KCl, KH2PO4, CaCl2, MgCl2)
[5] = biological target: FQSE (SEQ ID NO:10)-specific binding sites in rat cortex membranes (rat); assay: radioligand analysis with [3H] FQSE and unlabeled FQSE on membranes isolated by various techniques
[6] = biological target: NMDA receptors of rat hippocampal plasma membranes (rat); assay: radioligand analysis with [^3H]-FQSE and unlabeled FQSE on rat hippocampal membranes isolated for NMDA receptors (negative control)
[7] = biological target: FQSE (SEQ ID NO:10)-specific binding sites in rat cortex membranes (rat); assay: radioligand analysis, rat cortex membranes, incubation 20 min at 37 °C
[8] = biological target: FQSE (SEQ ID NO:10)-specific binding sites in rat cortex membranes (rat); assay: radioligand analysis, rat cortex membranes, incubation 25 min at 24 °C (selected condition)
[9] = biological target: FQSE (SEQ ID NO:10)-specific binding sites in rat cortex membranes (rat); assay: radioligand analysis, rat cortex membranes, incubation 20 min at 24 °C
[10] = biological target: FQSE (SEQ ID NO:10)-specific binding sites in rat cortex membranes (rat); assay: radioligand analysis, rat cortex membranes, incubation 30 min at 24 °C
[11] = biological target: FQSE (SEQ ID NO:10)-specific binding sites in rat cortex membranes (rat); assay: radioligand analysis, rat cortex membranes, incubation 30 min at 37 °C
[12] = biological target: GABAA receptor of rat cerebral cortex plasma membranes (rat); assay: [^3H]-Flunitrazepam radioligand analysis (benzodiazepine site), 25 min pre-incubation + 30 min incubation, 24 °C; FQSE 10^-5 M
[13] = biological target: GABAA receptor of rat cerebral cortex plasma membranes (rat); assay: [^3H]-Flunitrazepam radioligand analysis (benzodiazepine site), 25 min pre-incubation + 30 min incubation, 24 °C; FQSE 10^-4 M
[14] = biological target: FQSE (SEQ ID NO:10)-specific binding sites in rat cortex membranes (rat); assay: displacement of [^3H]-FQSE by unlabeled FQSE, rat cortex membranes, 25 min at room temperature
[15] = biological target: GABAA receptor of rat cerebral cortex plasma membranes (rat); assay: [^3H]-Flunitrazepam radioligand analysis (benzodiazepine site), 30 min incubation, 4 °C; FQSE 10^-5 M
[16] = biological target: GABAA receptor of rat cerebral cortex plasma membranes (rat); assay: [^3H]-Flunitrazepam radioligand analysis (benzodiazepine site), 25 min pre-incubation + 30 min incubation, 4 °C; FQSE 10^-4 M
[17] = biological target: GABAA receptor of rat cerebral cortex plasma membranes (rat); assay: [^3H]-Flunitrazepam radioligand analysis (benzodiazepine site), 25 min pre-incubation + 30 min incubation, 4 °C; FQSE 10^-5 M
[18] = biological target: GABAA receptor of rat cerebral cortex plasma membranes (rat); assay: [^3H]-Flunitrazepam radioligand analysis (benzodiazepine site), 30 min incubation, 24 °C; FQSE 10^-4 M
[19] = biological target: GABAA receptor of rat cerebral cortex plasma membranes (rat); assay: [^3H]-Flunitrazepam radioligand analysis (benzodiazepine site), 30 min incubation, 4 °C; FQSE 10^-4 M
[20] = biological target: GABAA receptor of rat cerebral cortex plasma membranes (rat); assay: [^3H]-Flunitrazepam radioligand analysis (benzodiazepine site), 30 min incubation, 24 °C; FQSE 10^-5 M

% percentage of specific binding of total binding [1] | % percentage of specific binding of total binding [2] | % percentage of specific binding of total binding [3] | percentage of specific binding [4] | specific FQSE binding percentage of the total binding [5] | difference between total and non-specific binding [6] | % percentage of specific binding of total binding [7] | % percentage of specific binding of total binding [8] | % percentage of specific binding of total binding [9] | % percentage of specific binding of total binding [10] | % percentage of specific binding of total binding [11] | Specific binding of [^3H]-Flunitrazepam, relative to control levels, % [12] | Specific binding of [^3H]-Flunitrazepam, relative to control levels, % [13] | IC50 [14] | Specific binding of [^3H]-Flunitrazepam, relative to control levels, % [15] | Specific binding of [^3H]-Flunitrazepam, relative to control levels, % [16] | Specific binding of [^3H]-Flunitrazepam, relative to control levels, % [17] | Specific binding of [^3H]-Flunitrazepam, relative to control levels, % [18] | Specific binding of [^3H]-Flunitrazepam, relative to control levels, % [19] | Specific binding of [^3H]-Flunitrazepam, relative to control levels, % [20] | Binder
47% | 72% | 48% | 63% | 0 to 47% | 11% | 79% | 86% | 75% | 78% | 77% |  |  |  |  |  |  |  |  |  | FQSE (also: tritium label ([3H]), position not given here) [[^3H]-FQSE (SEQ ID NO:10), tritium radiolabeled peptide]
 |  |  |  |  |  |  |  |  |  |  | 99.8% | 101% | 2000 nM | 100% | 101% | 101% | 101% | 100% | 101% | FQSE [FQSE (SEQ ID NO:10) peptide, unlabeled]
